Test results: patent US20160193292A1

Biological target: JNK-interacting protein 1 (JIP-1) (UniProt Q9WVI9)
Experiment: IP-FCM of lysates from OT-I T cells stimulated with OVA-Tet/α-CD28 in the presence of Tat-POSH vs Tat-cont.; competitor for POSH

Sequence of JNK-interacting protein 1 (JIP-1) (Q9WVI9 whole entry): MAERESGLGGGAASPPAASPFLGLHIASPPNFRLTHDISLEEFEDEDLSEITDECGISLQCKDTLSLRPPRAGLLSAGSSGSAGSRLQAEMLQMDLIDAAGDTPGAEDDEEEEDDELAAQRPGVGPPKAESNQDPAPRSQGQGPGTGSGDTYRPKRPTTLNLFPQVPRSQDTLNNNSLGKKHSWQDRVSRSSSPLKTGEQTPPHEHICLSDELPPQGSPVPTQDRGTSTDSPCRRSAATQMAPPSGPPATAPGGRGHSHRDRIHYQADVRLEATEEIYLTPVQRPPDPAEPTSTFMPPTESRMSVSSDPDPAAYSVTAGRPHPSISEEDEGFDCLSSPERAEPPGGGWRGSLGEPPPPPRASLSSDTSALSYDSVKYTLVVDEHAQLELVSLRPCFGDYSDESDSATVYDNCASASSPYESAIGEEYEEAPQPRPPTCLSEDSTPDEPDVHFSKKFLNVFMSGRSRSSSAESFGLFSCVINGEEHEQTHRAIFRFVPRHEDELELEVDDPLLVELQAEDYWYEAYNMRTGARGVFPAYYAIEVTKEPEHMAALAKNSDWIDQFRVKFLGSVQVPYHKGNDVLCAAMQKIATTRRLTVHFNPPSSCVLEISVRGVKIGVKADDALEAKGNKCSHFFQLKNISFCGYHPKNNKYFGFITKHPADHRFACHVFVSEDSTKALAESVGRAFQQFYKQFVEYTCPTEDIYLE

Tat-POSH SH3.3 (cell-permeable peptide containing the HIV Tat protein transduction domain fused to the SH3.3 of POSH)
percent of POSH/JIP-1 complexes disrupted: 30%
